# Measurements: the RNAGym collection of RNA variant scans (doi:10.1093/molbev/msab373)
# B1: Azoarcus group I ribozyme (parent)
# chain: GUGCCUUGCGCCGGGAAACCACGCAAGGGAUGGUGUCAAAUUCGGCGAAACCUAAGCGCCCGCCCGGGCGUAUGGCAACGCCGAGCCAAGCUUCGGCGCCUGCGCCGAUGAAGGUGUAGAGACUAGACGGCACCCACCUAAGGCAAACGCUAUGGUGAAGGCAUAGUCCAGGGAGUGGCGAAAGUCACACAAACCGG
# Variants of: B1
# Assay: reverse-splicing fitness (ratio to wild type); higher = more active; in vitro selection; Mg2+ level not given
# Outline: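 An in vitro group I ribozyme library with randomized positions was T7-transcribed and gel-purified. In triplicate, 10 pmol RNA in EPPS pH 7.5 was reacted with 50 pmoles of a 30-nt RNA substrate for 1 h at 37 °C across several added MgCl2 levels (1–48 mM), then stopped with EDTA. Products were reverse transcribed from a substrate-complementary primer, PCR-amplified and sequenced (HiSeq 4000). Fitness is a variant's read proportion after selection over that before, normalised to wild type.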
row,Variant,reverse-splicing fitness
1,GUGCCUUGCGCCGGGAAACCACGCAAGGGAUGGUGUCAAAUUCGGCGAAACCUAAGCGCCCGCCCGGGCGUAUGGCAACGCUGAGCCAAGCUUCGGCGCCUGCGCCGAUGUAGGUGUAGUGACUAGACGGCACCCACCUAAGGCCAACGGUAUGGUGAAGGCAUAGUCUAGGGAGAGGCGAAAGUCACACAAACCGG [C82U A111U A120U A145C C150G C169U U176A],0.00255
2,GUGCCUUGCGCCGGGAAACCACGCAAGGGAUGGUGUCAAAUUCGGCGAAACCUAAGCGCCCGCCCGGGCGUAUGGCAACGCUGAGCCAAGCUUCGGCGCCUGCGCCGAUGUAGGUGUAGUGACUAGACGGCACCCACCUAAGGCCAACGGUAUGGUGAAGGCAUAGUCUAGGGAGGGGCGAAAGUCACACAAACCGG [C82U A111U A120U A145C C150G C169U U176G],0.00218
3,GUGCCUUGCGCCGGGAAACCACGCAAGGGAUGGUGUCAAAUUCGGCGAAACCUAAGCGCCCGCCCGGGCGUAUGGCAACGCUGAGCCAAGCUUCGGCGCCUGCGCCGAUGUAGGUGUAGUGACUAGACGGCACCCACCUAAGGCCAACGGUAUGGUGAAGGCAUAGUCUAGGGAGCGGCGAAAGUCACACAAACCGG [C82U A111U A120U A145C C150G C169U U176C],0.0022
4,GUGCCUUGCGCCGGGAAACCACGCAAGGGAUGGUGUCAAAUUCGGCGAAACCUAAGCGCCCGCCCGGGCGUAUGGCAACGCUGAGCCAAGCUUCGGCGCCUGCGCCGAUGUAGGUGUAGUGACUAGACGGCACCCACCUAAGGCCAACGAUAUGGUGAAGGCAUAGUCCAGGGAGGGGCGAAAGUCACACAAACCGG [C82U A111U A120U A145C C150A U176G],0.00245
5,GUGCCUUGCGCCGGGAAACCACGCAAGGGAUGGUGUCAAAUUCGGCGAAACCUAAGCGCCCGCCCGGGCGUAUGGCAACGCUGAGCCAAGCUUCGGCGCCUGCGCCGAUGUAGGUGUAGUGACUAGACGGCACCCACCUAAGGCCAACGAUAUGGUGAAGGCAUAGUCCAGGGAGCGGCGAAAGUCACACAAACCGG [C82U A111U A120U A145C C150A U176C],0.00387
6,GUGCCUUGCGCCGGGAAACCACGCAAGGGAUGGUGUCAAAUUCGGCGAAACCUAAGCGCCCGCCCGGGCGUAUGGCAACGCUGAGCCAAGCUUCGGCGCCUGCGCCGAUGUAGGUGUAGUGACUAGACGGCACCCACCUAAGGCCAACGAUAUGGUGAAGGCAUAGUCCAGGGAGAGGCGAAAGUCACACAAACCGG [C82U A111U A120U A145C C150A U176A],0.00354
7,GUGCCUUGCGCCGGGAAACCACGCAAGGGAUGGUGUCAAAUUCGGCGAAACCUAAGCGCCCGCCCGGGCGUAUGGCAACGCUGAGCCAAGCUUCGGCGCCUGCGCCGAUGUAGGUGUAGUGACUAGACGGCACCCACCUAAGGCCAACGUUAUGGUGAAGGCAUAGUCGAGGGAGCGGCGAAAGUCACACAAACCGG [C82U A111U A120U A145C C150U C169G U176C],0.00287
8,GUGCCUUGCGCCGGGAAACCACGCAAGGGAUGGUGUCAAAUUCGGCGAAACCUAAGCGCCCGCCCGGGCGUAUGGCAACGCUGAGCCAAGCUUCGGCGCCUGCGCCGAUGUAGGUGUAGUGACUAGACGGCACCCACCUAAGGCCAACGUUAUGGUGAAGGCAUAGUCGAGGGAGAGGCGAAAGUCACACAAACCGG [C82U A111U A120U A145C C150U C169G U176A],0.00283
9,GUGCCUUGCGCCGGGAAACCACGCAAGGGAUGGUGUCAAAUUCGGCGAAACCUAAGCGCCCGCCCGGGCGUAUGGCAACGCUGAGCCAAGCUUCGGCGCCUGCGCCGAUGUAGGUGUAGUGACUAGACGGCACCCACCUAAGGCCAACGGUAUGGUGAAGGCAUAGUCAAGGGAGGGGCGAAAGUCACACAAACCGG [C82U A111U A120U A145C C150G C169A U176G],0.00281
10,GUGCCUUGCGCCGGGAAACCACGCAAGGGAUGGUGUCAAAUUCGGCGAAACCUAAGCGCCCGCCCGGGCGUAUGGCAACGCUGAGCCAAGCUUCGGCGCCUGCGCCGAUGUAGGUGUAGUGACUAGACGGCACCCACCUAAGGCCAACGGUAUGGUGAAGGCAUAGUCAAGGGAGCGGCGAAAGUCACACAAACCGG [C82U A111U A120U A145C C150G C169A U176C],0.00247
11,GUGCCUUGCGCCGGGAAACCACGCAAGGGAUGGUGUCAAAUUCGGCGAAACCUAAGCGCCCGCCCGGGCGUAUGGCAACGCUGAGCCAAGCUUCGGCGCCUGCGCCGAUGUAGGUGUAGUGACUAGACGGCACCCACCUAAGGCCAACGGUAUGGUGAAGGCAUAGUCAAGGGAGAGGCGAAAGUCACACAAACCGG [C82U A111U A120U A145C C150G C169A U176A],0.00264
12,GUGCCUUGCGCCGGGAAACCACGCAAGGGAUGGUGUCAAAUUCGGCGAAACCUAAGCGCCCGCCCGGGCGUAUGGCAACGCUGAGCCAAGCUUCGGCGCCUGCGCCGAUGUAGGUGUAGUGACUAGACGGCACCCACCUAAGGCCAACGGUAUGGUGAAGGCAUAGUCCAGGGAGUGGCGAAAGUCACACAAACCGG [C82U A111U A120U A145C C150G],0.00588
13,GUGCCUUGCGCCGGGAAACCACGCAAGGGAUGGUGUCAAAUUCGGCGAAACCUAAGCGCCCGCCCGGGCGUAUGGCAACGCUGAGCCAAGCUUCGGCGCCUGCGCCGAUGUAGGUGUAGUGACUAGACGGCACCCACCUAAGGCCAACGUUAUGGUGAAGGCAUAGUCCAGGGAGUGGCGAAAGUCACACAAACCGG [C82U A111U A120U A145C C150U],0.00815
14,GUGCCUUGCGCCGGGAAACCACGCAAGGGAUGGUGUCAAAUUCGGCGAAACCUAAGCGCCCGCCCGGGCGUAUGGCAACGCUGAGCCAAGCUUCGGCGCCUGCGCCGAUGUAGGUGUAGUGACUAGACGGCACCCACCUAAGGCCAACGUUAUGGUGAAGGCAUAGUCGAGGGAGUGGCGAAAGUCACACAAACCGG [C82U A111U A120U A145C C150U C169G],0.00276
15,GUGCCUUGCGCCGGGAAACCACGCAAGGGAUGGUGUCAAAUUCGGCGAAACCUAAGCGCCCGCCCGGGCGUAUGGCAACGCUGAGCCAAGCUUCGGCGCCUGCGCCGAUGUAGGUGUAGUGACUAGACGGCACCCACCUAAGGCCAACGUUAUGGUGAAGGCAUAGUCAAGGGAGUGGCGAAAGUCACACAAACCGG [C82U A111U A120U A145C C150U C169A],0.0022
